The term stoichiometry N denotes a count of units in the complex or per binding partner.

This data set concerns the molecule itself. The experiment in a line: SEC; FPLC (AKTA system), buffer A (Table S1); multiple runs on diluted protein to allow c-di-GMP to dissociate on the column. For orientation: SEC sorts molecules by how far they enter the pores of the column.

B1: PleD from C. crescentus (enzyme, UniProt Q9A5I5 1-454, looked up)
chain: MSARILVVDDIEANVRLLEAKLTAEYYEVSTAMDGPTALAMAARDLPDIILLDVMMPGMDGFTVCRKLKDDPTTRHIPVVLITALDGRGDRIQGLESGASDFLTKPIDDVMLFARVRSLTRFKLVIDELRQREASGRRMGVIAGAAARLDGLGGRVLIVDDNERQAQRVAAELGVEHRPVIESDPEKAKISAGGPVDLVIVNAAAKNFDGLRFTAALRSEERTRQLPVLAMVDPDDRGRMVKALEIGVNDILSRPIDPQELSARVKTQIQRKRYTDYLRNNLDHSLELAVTDQLTGLHNRRYMTGQLDSLVKRATLGGDPVSALLIDIDFFKKINDTFGHDIGDEVLREFALRLASNVRAIDLPCRYGGEEFVVIMPDTALADALRIAERIRMHVSGSPFTVAHGREMLNVTISIGVSATAGEGDTPEALLKRADEGVYQAKASGRNAVVGKAA
notes: PleD, diguanylate cyclase of C. crescentus; In the functional assay the protein was also used after treatment with NaF and BeCl2 (beryllium fluoride, mimics phosphorylation); source: E. coli BL21 (DE3), purified (Ni2+-IMAC HisTrap, multiple FPLC runs)
For the protein B1, the “stoichiometry N” value was determined as 2.

Values taken from paper PMC7825114, “Studying GGDEF Domain in the Act: Minimize Conformational Frustration to Prevent Artefacts” (Life, 2021).
